The results in this text go back to publication PMC12101541.

Test [1] addresses GGlFGGn-TgSkp1 (fully glycosylated TgSkp1, GalGlcFucGalGlcNAc glycan at Hyp154) (Toxoplasma gondii). The experiment in a line: AUC; sedimentation velocity, 50,000 rpm, 20 °C, 50 mM K phosphate (pH 7.4), 25 mM KCl (standard buffer); Sw isotherm fitted with a monomer-dimer self-association model (SedPhat); dimer to monomers.
The target in test [2] is TgSkp1-poly-Ser (TgSkp1 with the CTR replaced by poly-serine) (Toxoplasma gondii). The description is as above.
The target of test [3] is TgSkp1ΔCTR (TgSkp1 lacking the C-terminal region) (Toxoplasma gondii). The test is described as above.
The target of test [4] is TgSkp1Δloop (TgSkp1 with the internal disordered loop replaced by GGSG) (Toxoplasma gondii). The test is described as above.
The target is the same in test [5]. The experiment in a line: AUC; sedimentation velocity as in the standard experiment but with 600 mM KCl (high salt, ionic strength of 710 mM); Sw isotherm, monomer-dimer model; dimer to monomers.
For test [6], the target named is TgSkp1ΔloopΔCTR (TgSkp1 with the internal loop replaced by GGSG and the CTR deleted) (Toxoplasma gondii). Briefly: AUC; sedimentation velocity, 50,000 rpm, 20 °C, 50 mM K phosphate (pH 7.4), 25 mM KCl (standard buffer); Sw isotherm fitted with a monomer-dimer self-association model (SedPhat); dimer to monomers.
For test [7] the target is unchanged. Briefly: AUC; sedimentation velocity as in the standard experiment but with 600 mM KCl (high salt, ionic strength of 710 mM); Sw isotherm, monomer-dimer model; dimer to monomers.
Test [8] concerns the target full-length TgSkp1 (Skp1 from Toxoplasma gondii), unmodified (Toxoplasma gondii). The experiment in a line: AUC; sedimentation velocity, 50,000 rpm, 20 °C, 50 mM K phosphate (pH 7.4), 25 mM KCl (standard buffer); Sw isotherm fitted with a monomer-dimer self-association model (SedPhat); dimer to monomers.

Consider “GGlFGGn-TgSkp1 (fully glycosylated TgSkp1, GalGlcFucGalGlcNAc glycan at Hyp154) (natural protein)”, for which, in test [1], the Kd came out at 400 nM and the stoichiometry N is 2.
In test [2], “TgSkp1-poly-Ser (TgSkp1 with the CTR replaced by poly-serine)” gave a Kd of 900 nM and a stoichiometry N of 2.
In test [3], “TgSkp1ΔCTR (TgSkp1 lacking the C-terminal region) (domain or fragment)” came in with a Kd of 900 nM and a stoichiometry N of 2.
Regarding “TgSkp1Δloop (TgSkp1 with the internal disordered loop replaced by GGSG) (natural protein)”, in test [4], the Kd amounted to 200 nM and the stoichiometry N is 2. Further, the equilibrium dissociation constant (Kd) in test [5] was 8500 nM.
In test [6], “TgSkp1ΔloopΔCTR (TgSkp1 with the internal loop replaced by GGSG and the CTR deleted) (domain or fragment)” yielded a Kd of 2400 nM and a stoichiometry N of 2. Besides, the Kd in test [7] is 1900 nM.
In test [8], “full-length TgSkp1 (Skp1 from Toxoplasma gondii), unmodified (natural protein)” returned a Kd of 50 nM, a degree of dissociation at 300 nM of 18% and a stoichiometry N of 2.
